Reference: patent publication CN116615457A (ICONOSCO S A, dated 2023)
Substitutions are numbered along the chain they refer to.

Assays:
[1] = molecular target: T1, 重组食蟹猴IL-1RAP-ECD(S21-E359)-avi-his蛋白 (cynomolgus monkey, UniProt P59822 21-359 (rhesus entry), biotinylated in the Fab SPR assay); assay: SPR; IgG1 LALA captured on anti-human IgG Fc chip, cynomolgus IL-1RAP-avi-his as analyte
T1 construct: also called 食蟹猴IL-1RAP-ECD-Avi-His; 重组食蟹猴IL-1RAP-avi-his蛋白
T1 sequence: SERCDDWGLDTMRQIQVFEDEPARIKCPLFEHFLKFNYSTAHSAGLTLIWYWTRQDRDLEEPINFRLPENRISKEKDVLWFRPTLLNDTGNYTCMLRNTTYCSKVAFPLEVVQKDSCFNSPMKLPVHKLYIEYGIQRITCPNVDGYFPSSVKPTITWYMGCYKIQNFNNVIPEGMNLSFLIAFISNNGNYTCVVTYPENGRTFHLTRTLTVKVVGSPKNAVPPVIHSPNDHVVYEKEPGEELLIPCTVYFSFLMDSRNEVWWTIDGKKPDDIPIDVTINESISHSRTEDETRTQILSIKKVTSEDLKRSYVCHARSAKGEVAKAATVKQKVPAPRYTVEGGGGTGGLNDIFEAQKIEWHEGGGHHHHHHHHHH

[2] = molecular target: T2, 重组人IL-1RAP-ECD(S21-E359)-avi-his蛋白 (human, UniProt Q9NPH3 21-359, biotinylated in the BLI binning assay); assay: SPR; IgG1 LALA captured on anti-human IgG Fc chip, human IL-1RAP-avi-his as analyte
T2 construct: also called 人IL-1RAP-ECD-Avi-His; 重组人IL-1RAP-avi-his蛋白
T2 sequence: T1 sequence with F183L, P273T, T326K

[3] = molecular target: T3, 膜结合的小鼠IL-1RAP (NIH-3T3细胞) (mouse, UniProt Q61730 21-570); assay: flow cytometry (Fig. 11 legend)
T3 construct: whole, on cells; also called mouse IL-1RAP on NIH-3T3 cells
T3 sequence (looked up): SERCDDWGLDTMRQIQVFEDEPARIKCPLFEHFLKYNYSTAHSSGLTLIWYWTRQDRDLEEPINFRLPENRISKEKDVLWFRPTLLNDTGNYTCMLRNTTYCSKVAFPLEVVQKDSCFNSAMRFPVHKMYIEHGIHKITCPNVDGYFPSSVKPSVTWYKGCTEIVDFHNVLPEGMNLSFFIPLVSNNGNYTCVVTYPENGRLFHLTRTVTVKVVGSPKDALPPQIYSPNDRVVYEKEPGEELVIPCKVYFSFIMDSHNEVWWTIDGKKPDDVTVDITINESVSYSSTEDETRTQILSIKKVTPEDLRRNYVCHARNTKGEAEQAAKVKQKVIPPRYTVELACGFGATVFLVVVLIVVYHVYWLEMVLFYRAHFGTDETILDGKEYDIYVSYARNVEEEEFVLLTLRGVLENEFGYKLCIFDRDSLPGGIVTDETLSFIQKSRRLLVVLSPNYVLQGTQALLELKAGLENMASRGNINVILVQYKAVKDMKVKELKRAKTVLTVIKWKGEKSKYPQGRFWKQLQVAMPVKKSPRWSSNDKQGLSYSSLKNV

[4] = molecular target: T1, 重组食蟹猴IL-1RAP-ECD(S21-E359)-avi-his蛋白; assay: SPR; KD on cynomolgus IL-1RAP against KD on human IL-1RAP

B1: 抗IL-1RAP-C8-RecC IgG1 LALA (antibody, V domains shown)
VH: QVQLVQSGAEVKKPGSSVKVSCKASGSPAEPYAIQWVRQAPGQGLEWMGYIIPSLGGYDYAQKFQGRVTITADESTSTAYMELSSLRSEDTAVYYCARGQTLYDSGRQFDIWGQGTLVTVSS
VL: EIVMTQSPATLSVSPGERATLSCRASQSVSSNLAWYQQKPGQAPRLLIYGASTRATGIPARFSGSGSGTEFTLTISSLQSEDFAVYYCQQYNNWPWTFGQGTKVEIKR
notes: Human IgG1 LALA format; also called 亲本克隆抗IL-1RAP-C8-RecC; anti-IL-1RAP-C8-RecC IgG1 LALA
Question: Does B1 bind [1]?
Answer: Result: binds

Question: Does B1 bind [2]?
Answer: Result: binds

B2: 抗IL-1RAP-C3-A3-mmIgG2a-LALA (antibody, V domains shown)
VH: EVQLLESGGGLVQPGGSLRLSCAASGFIFSHYGMSWVRQAPGKGLEWVSAISYDGEGTLYADSVKGRFTISRDNSKNTLYLQMNSLRAEDTAVYYCARFRYYTAFDYWGQGTLVTVSS
VL: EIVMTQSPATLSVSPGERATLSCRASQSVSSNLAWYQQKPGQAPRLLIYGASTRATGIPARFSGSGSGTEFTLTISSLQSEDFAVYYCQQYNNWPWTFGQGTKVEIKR
notes: Mouse IgG2a LALA; also called 抗IL-1RAP-C3-A3小鼠IgG2a LALA; 抗IL-1RAP-C3-A3克隆
Question: Does B2 bind [3]?
Answer: Result: binds

B3: 抗IL-1RAP-UCP02-C3 Fab (Fab, V domains shown)
VH: B2 VH with I28T, S30R, H31D, G33A, S35G
VL: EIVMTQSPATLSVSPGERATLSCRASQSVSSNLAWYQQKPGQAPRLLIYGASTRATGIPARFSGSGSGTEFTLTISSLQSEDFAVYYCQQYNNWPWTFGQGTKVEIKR
notes: also called 抗IL-1RAP-C3; 抗IL-1RAP-C3 Fab
Question: B3 was tested. Which “fold lower affinity than for human IL-1RAP” value [4] did it give?
Answer: The value was roughly 40 fold.
